Test: soluble fraction after stress (log2 fold change); higher = more stays soluble; pooled small domains, quantitative proteomics
Settings: stress: 50 degC
Outline: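 Quantitative proteomics served as the high-throughput read-out for pooled custom libraries of small protein domains. Each was stressed at 50°C. Aggregation propensity is expressed as the base-two log fold change in soluble protein after stress. A higher value means a larger share of the protein remains in solution.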

Question: With “HMKTDLQIQQDVMAELKWEPKVNAAHIGVEVKHGVVTLSGHVDSFAEKWNAEQAAKRVAGVKFIAIELDV” as the sequence, how does the “soluble fraction (log2)” value read?
Answer: -1.67

Question: Which “soluble fraction (log2)” value does the source give for “HMKTEIKSPLPGIVLKIFVRTGEYVDKNQRLFSLEAMKMENEIKAERAGVIAGIRISEGQSVLQDEVIMEM” here?
Answer: -0.297

Question: For “HMKTFQSYQTTSMSNVNLRKRANGTSTILKRIKVGDTVTVVGKSGNYYQIQFDGKEGYALIKYIDGTDSGA”, which “soluble fraction (log2)” value is on record?
Answer: -0.247

Question: For “HMKTFSTRLIALREAIGVNQSELARRVGVTPQAVQKWESGANGPRGKRLEKLASELRSTVGYLVSGEGDG”, which “soluble fraction (log2)” value is on record?
Answer: -0.446

Question: With “HMKTGAKLKNLRKMKKLSQEEVAKVLNLSYSTLSRWENDTRIPTYEDLFKLGQFYGVSVDYLSDPN” as the sequence, how does the “soluble fraction (log2)” value read?
Answer: -0.359

Question: For “HMKTGNIITVSLVWKGKYYMIRMFFPSASRPTRSDVQNEIEKVYPGSKLSTFSVSDYEPGQPLLQV”, which “soluble fraction (log2)” value is on record?
Answer: -1.16

Question: Which “soluble fraction (log2)” value does the source give for “HMKTGNPYAQRNTADMYNYGRGIEKDSYLAFVWYFAAYKQGNDNAKPQIDSITASGHLSPNQQLHAKIE” here?
Answer: -0.464

Question: With “HMKTIQVGSTVRVNQGAKTYSGGGLASFVYKRNHKVSQLQGDRAVITYEGTVVAAVHVSDLSLIH” as the sequence, how does the “soluble fraction (log2)” value read?
Answer: -0.062

Question: For “HMKTLELIAAIRKRIAGGYAGADGRLPNIGEIAKDFSVSPMTAQKAVRALVEAGVLTSTRRKGVFLKQPAS”, which “soluble fraction (log2)” value is on record?
Answer: -1.01

Question: With “HMKTLGMDKGVNIALNDAGLRAEDVSNLSAHYDTEDGVPVYEIKFTAGGFSYEYQIKASDGTIIEADRDAA” as the sequence, how does the “soluble fraction (log2)” value read?
Answer: -0.108

Question: Which “soluble fraction (log2)” value does the source give for “HMKTMAVYPVGTRVLTSDGEIGVVEKQNSEAPERPVIKILKGADGHDYEKPDFKDLMKILTLFIVDTI” here?
Answer: 0.298

Question: Which “soluble fraction (log2)” value does the source give for “HMKTMSLSSIEKAIYKTKYENEPTSQRLSRIESSVFGTNFSQDSESERIARISSAINAQKSAK” here?
Answer: 0.125

Question: Which “soluble fraction (log2)” value does the source give for “HMKTMTTIRKGSRGDTVATLQRKLNLIADGIFGPITDEAVRDFQKSHGLAVDGIVGPKTWAALGVGS” here?
Answer: 0.0423

Question: For “HMKTNQINVSGLSKEKNFEVLESLDVYKFYNLFFLNKIKIDQLINSYNHIDNYSVFKKYPSSLIVKLSE”, which “soluble fraction (log2)” value is on record?
Answer: 0.0996

Question: For “HMKTPETSEYVVQAGDSLRRILTERYGAKEQDLPYLYRQFRLLNPKVSSLDNIHAGTKVRIPLVASVL”, which “soluble fraction (log2)” value is on record?
Answer: 0.132

Question: Which “soluble fraction (log2)” value does the source give for “HMKTPRKVFTVLIRNTEYDVYDIDGKEHQGYNDTPKTWWLYHSERLPEGMIPPIDSDSWKPYSVGT” here?
Answer: -0.831

Question: Which “soluble fraction (log2)” value does the source give for “HMKTTKESLLEYIQREVFTDSIHKEGLSTNEIADAFQIQRSNVSSLLNTLVKEGKLEKTTGRPVLYRIPEK” here?
Answer: 0.0655

Question: For “HMKVEFDAMDKRILELMAKEYDTVLMARHLPLTPIVIDVRKKRIREVLNLPDATDAEIVIEAKEKDII”, which “soluble fraction (log2)” value is on record?
Answer: -0.322

Question: For “HMKVEIVRVVKDIHIGDEITKDMVRTVEVGGYNLPDGVVKDTATVIGRFASADMVPGDYIISSKIADAP”, which “soluble fraction (log2)” value is on record?
Answer: -0.121

Question: With “HMKVELSENEKIIYDLLSNQEVLLSEIKDKAELSNKAWDKSTKSLRKLGLVIVEKKDDNIYISKS” as the sequence, how does the “soluble fraction (log2)” value read?
Answer: -0.362

Question: Which “soluble fraction (log2)” value does the source give for “HMKVGEIIKAKREELKIPLVNFAKELDISQGYLSQIENGIKTNPNLDIILKIIHRLDIDLAMLL” here?
Answer: -1.32

Question: Which “soluble fraction (log2)” value does the source give for “HMKVIAEESYRILVDAIEKLPPQMKSIMQLALEGKSNPEIAETLNISGETVHSQKKIAYRKLRVYLKD” here?
Answer: -1.17

Question: For “HMKVIETKYNTYVVKSGDTLYSVAKKYGISVTELKEINDLSNNTLSIGQKLLVPATTIIIDE”, which “soluble fraction (log2)” value is on record?
Answer: -0.117

Question: Which “soluble fraction (log2)” value does the source give for “HMKVNMIIVMKPGARETDIQEVSNVLKSAGLGVHISKGTERTIIGVIGDKRLLNGIPLDLMHGVDKLVPIM” here?
Answer: 0.0193

Question: Which “soluble fraction (log2)” value does the source give for “HMKVNQFEVEGNQRYSTEEIAKASGVSKGDNLFLVNKTETARKLLDELAYVRSVNIKRKLPDTLVITVAE” here?
Answer: 0.399

Question: With “HMKVPDVQYMNKDSAIEALTANELKYTIVEAENENVAAGVVISQSVERDSQVAPGTSVELVVSTG” as the sequence, how does the “soluble fraction (log2)” value read?
Answer: 0.0357

Question: Which “soluble fraction (log2)” value does the source give for “HMKVQEMTANSFLTQWEAGNVKTLDILPEGIIKGELNDGTKFQLYYSSAAGLIDDVKKNPEKFANTTVSEK” here?
Answer: 0.129

Question: For “HMKVQEVDYGTFLTMVDEGKVNQVDIENSKQITFNTKGDKNKVYITGQVNDPELVNRLYKAGVEFSQEIP”, which “soluble fraction (log2)” value is on record?
Answer: 0.0729

Question: For “HMKVSNWYFNGAPSATTPPTSQWTTEKDKKAHIGDTFTSLDKSPSPNAGKSWRYTPSYTWEEIV”, which “soluble fraction (log2)” value is on record?
Answer: 0.344

Question: With “HMKVSRTAVKLHHANAVEVAKKLQPLFVVGDVQIEPVKDAGIILLKGPASTLADLRESIVQMDHTA” as the sequence, how does the “soluble fraction (log2)” value read?
Answer: -0.0461

Question: With “HMKVTRWEDTGMKPAEAQEWQHYDFKPQEAMNWRDAGFVPLVARTWSDKGFDASEAQAWRDSVRNS” as the sequence, how does the “soluble fraction (log2)” value read?
Answer: -0.19

Question: For “HMKVVEKHIVPQIQNPIRLQEYASSIFKTITTRSGIKKAIKKQLILLNRKPANTGDWIKEGQLLELLAEE”, which “soluble fraction (log2)” value is on record?
Answer: -0.242

Question: Which “soluble fraction (log2)” value does the source give for “HMKVYIKDISDLSDKLKSLLIENDIDDSNKLFEVEDQVLLEIKGLGSKTIDKIKDIVTEYLKKNN” here?
Answer: -0.218

Question: With “HMKVYPIMEAIANNNIELVKLLLEYHADLNIKDSNGNTPLALAKETGAKEVEDLLLQWMKQHT” as the sequence, how does the “soluble fraction (log2)” value read?
Answer: -0.543

Question: With “HMKWGDTPTVEVPNLIGMKKKDLQTQLVDLKLDISGDGEKVIKQSPEAGAKVKEGSKIRIYFG” as the sequence, how does the “soluble fraction (log2)” value read?
Answer: -0.0661

Question: Which “soluble fraction (log2)” value does the source give for “HMKWYDSDKGFGFLSQEEGEDVYVRSSALPAGVEGLKAGQRVEFGIASGRRGPQALSL” here?
Answer: -0.0714

Question: With “HMKYKKYKLLKDLPTFKAGQLAYISKTGNLIAGTPENQKTTETGLIIMIYHETTLKKFPNILTEWFEEIE” as the sequence, how does the “soluble fraction (log2)” value read?
Answer: -2.71

Question: With “HMKYNGDRPVFNDDVAWAKWMLENPAKITSHDKENLSSMLKKPEVVMLFEAEDLSVPDLRTLAKE” as the sequence, how does the “soluble fraction (log2)” value read?
Answer: 0.236

Question: With “HMKYNYEAQQSDELSLVKGSRIHVLEKSSDGWWKGEIDNVVGWFPS” as the sequence, how does the “soluble fraction (log2)” value read?
Answer: -0.205

Question: With “HMKYRLLGENLQTIRKARGMKQQELADQIGINMQSLSKIERGLNYPTFETLEKIMNALGITPNELLSG” as the sequence, how does the “soluble fraction (log2)” value read?
Answer: -0.461

Question: With “HMKYRPGDVVTLRVARMGEMGAFLDAGTGNTNDDILLHKMQQTEEIKAGQDVKVYLYLDPNRRLTASMKL” as the sequence, how does the “soluble fraction (log2)” value read?
Answer: -0.108

Question: With “HMKYSNDEVERDLYVRGVIYQIGDLVENKLDGTSGEVVRRGPNYVQYTDGENFYKAFLSALQEQK” as the sequence, how does the “soluble fraction (log2)” value read?
Answer: -0.354

Question: With “HMKYSYAELTKLQEQIAQDRNAPLTVPNALGIGLDERNNVIEITVNIADEAAAKAYYLQKYGDRISLKTTD” as the sequence, how does the “soluble fraction (log2)” value read?
Answer: 0.117

Question: Which “soluble fraction (log2)” value does the source give for “HMKYTEEIFNILSRGGFISANSVSSTVKRYYDALEEDFTEYYDYYKGIGFYLEAGNGYYLFTR” here?
Answer: -3.29

Question: Which “soluble fraction (log2)” value does the source give for “HMKYTVKSPLPGVIMSVLVKVGDTVKASDTVISLEAMKMENAIHAGRDGKVTSIDVNVGDSVLEGHTLVTI” here?
Answer: -0.386

Question: For “HMLAAGTPLTVVTESSNLNIRQEPSTEAAVVGKAAKGEIVTLVEQTSGEWWKVSTKDGEEGYAYSRYL”, which “soluble fraction (log2)” value is on record?
Answer: 0.341

Question: Which “soluble fraction (log2)” value does the source give for “HMLAAGTSLTVDTESSNLNIRQEPSTEGVILGKAAKGEVVTLVEQSSDEWWKIKTKDGEEGYAYARYLR” here?
Answer: 0.203

Question: For “HMLADRANMAPAALRQIMTAIDGGNVTPKQIESATGMAHATVARALRKMLDDGLIANDGKGRYTVLT”, which “soluble fraction (log2)” value is on record?
Answer: -0.0609

Question: Which “soluble fraction (log2)” value does the source give for “HMLADTNIHTIALKHRLANEVVEQVRPFLPETATIRAYDNMLILKSDRATLANVEQLIKKLDT” here?
Answer: 0.0983

Question: Which “soluble fraction (log2)” value does the source give for “HMLALVREQIERNVSNPTDEDIRKIRHDVMEVITRAGADAATVDIAIEIDSQKNILRAIATGATEL” here?
Answer: -0.0114
